T1: ZNF827 ZnFΔ1-3 (Homo sapiens, UniProt Q17R98 1-373+456-1081, internal_change)
T1 sequence: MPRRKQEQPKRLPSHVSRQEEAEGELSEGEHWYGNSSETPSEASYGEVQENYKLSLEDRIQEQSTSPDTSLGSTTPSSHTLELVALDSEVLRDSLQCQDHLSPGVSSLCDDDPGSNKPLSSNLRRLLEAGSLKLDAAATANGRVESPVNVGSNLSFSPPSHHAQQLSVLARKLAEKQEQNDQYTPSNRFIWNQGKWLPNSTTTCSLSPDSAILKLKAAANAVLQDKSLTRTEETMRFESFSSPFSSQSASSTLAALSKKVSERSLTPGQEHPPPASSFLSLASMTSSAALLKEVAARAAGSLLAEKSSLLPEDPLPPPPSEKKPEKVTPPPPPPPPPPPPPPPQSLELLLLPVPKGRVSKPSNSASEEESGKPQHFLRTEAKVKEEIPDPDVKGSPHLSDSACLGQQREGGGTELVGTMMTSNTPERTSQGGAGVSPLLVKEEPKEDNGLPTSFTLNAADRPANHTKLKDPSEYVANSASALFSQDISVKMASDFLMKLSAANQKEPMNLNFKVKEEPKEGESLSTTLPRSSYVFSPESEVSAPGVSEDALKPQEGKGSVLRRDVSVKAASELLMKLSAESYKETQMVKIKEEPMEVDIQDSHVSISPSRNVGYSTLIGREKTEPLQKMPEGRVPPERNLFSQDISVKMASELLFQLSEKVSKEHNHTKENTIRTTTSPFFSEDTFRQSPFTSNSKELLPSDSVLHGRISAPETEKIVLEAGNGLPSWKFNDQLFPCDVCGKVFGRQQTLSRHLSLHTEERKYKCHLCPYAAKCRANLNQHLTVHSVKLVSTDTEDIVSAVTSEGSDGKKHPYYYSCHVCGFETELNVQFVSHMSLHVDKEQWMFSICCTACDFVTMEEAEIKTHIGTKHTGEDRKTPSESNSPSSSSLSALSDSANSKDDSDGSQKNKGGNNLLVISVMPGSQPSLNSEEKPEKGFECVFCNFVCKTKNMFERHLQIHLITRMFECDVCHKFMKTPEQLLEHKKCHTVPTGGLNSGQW

T2: ZNF827 wild-type (Homo sapiens, UniProt Q17R98 1-1081)
T2 sequence: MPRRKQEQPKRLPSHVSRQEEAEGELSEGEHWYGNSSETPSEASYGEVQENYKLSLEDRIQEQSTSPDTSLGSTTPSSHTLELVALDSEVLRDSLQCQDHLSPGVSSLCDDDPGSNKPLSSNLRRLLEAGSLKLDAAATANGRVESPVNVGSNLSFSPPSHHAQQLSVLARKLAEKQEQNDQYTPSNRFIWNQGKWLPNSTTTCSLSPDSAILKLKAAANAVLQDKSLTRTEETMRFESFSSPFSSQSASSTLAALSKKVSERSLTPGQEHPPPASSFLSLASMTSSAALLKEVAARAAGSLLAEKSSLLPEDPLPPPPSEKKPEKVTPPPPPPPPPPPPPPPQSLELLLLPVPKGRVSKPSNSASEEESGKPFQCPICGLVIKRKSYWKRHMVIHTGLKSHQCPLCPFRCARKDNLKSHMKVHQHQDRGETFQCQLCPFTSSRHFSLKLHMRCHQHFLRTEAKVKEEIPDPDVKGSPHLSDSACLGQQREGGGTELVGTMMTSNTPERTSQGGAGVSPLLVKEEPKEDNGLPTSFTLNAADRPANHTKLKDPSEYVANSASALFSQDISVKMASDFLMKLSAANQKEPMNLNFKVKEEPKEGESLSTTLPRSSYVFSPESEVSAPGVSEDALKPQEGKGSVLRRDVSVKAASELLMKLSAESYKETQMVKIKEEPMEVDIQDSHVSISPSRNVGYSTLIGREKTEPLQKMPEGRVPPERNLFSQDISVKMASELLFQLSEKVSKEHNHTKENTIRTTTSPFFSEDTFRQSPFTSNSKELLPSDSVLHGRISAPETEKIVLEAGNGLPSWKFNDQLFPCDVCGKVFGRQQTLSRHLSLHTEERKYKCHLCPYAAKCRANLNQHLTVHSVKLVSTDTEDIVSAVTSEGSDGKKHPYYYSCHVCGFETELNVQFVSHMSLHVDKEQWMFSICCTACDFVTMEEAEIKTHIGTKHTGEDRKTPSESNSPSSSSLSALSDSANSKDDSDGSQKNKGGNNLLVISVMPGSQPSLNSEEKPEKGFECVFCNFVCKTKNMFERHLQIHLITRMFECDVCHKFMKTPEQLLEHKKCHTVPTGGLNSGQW

T3: ZNF827 ZnFΔ4-9 (Homo sapiens, UniProt Q17R98 1-816+1070-1081, internal_change)
T3 sequence: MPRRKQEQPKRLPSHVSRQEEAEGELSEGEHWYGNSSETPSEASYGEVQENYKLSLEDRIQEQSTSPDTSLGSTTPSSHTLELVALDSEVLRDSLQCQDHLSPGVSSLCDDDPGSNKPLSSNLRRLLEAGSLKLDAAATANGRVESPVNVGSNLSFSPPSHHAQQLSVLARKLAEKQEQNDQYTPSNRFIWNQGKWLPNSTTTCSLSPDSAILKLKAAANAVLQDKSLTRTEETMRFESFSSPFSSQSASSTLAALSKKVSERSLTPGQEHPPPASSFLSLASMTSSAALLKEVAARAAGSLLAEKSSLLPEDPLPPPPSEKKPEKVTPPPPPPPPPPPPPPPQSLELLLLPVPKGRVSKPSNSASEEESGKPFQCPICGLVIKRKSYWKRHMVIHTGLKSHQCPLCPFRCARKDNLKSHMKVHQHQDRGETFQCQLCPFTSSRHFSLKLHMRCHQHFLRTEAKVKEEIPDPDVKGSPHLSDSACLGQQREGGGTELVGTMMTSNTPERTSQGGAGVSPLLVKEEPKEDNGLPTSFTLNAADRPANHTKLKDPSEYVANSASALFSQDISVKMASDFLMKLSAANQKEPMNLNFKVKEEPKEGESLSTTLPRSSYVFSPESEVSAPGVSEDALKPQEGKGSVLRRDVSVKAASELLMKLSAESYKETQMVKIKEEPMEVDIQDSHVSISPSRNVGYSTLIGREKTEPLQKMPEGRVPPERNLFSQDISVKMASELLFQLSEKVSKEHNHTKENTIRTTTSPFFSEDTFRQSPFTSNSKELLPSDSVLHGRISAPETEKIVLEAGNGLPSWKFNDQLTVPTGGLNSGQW

B1: ssDNA pentaprobe (ssDNA)
DNA: CGCTCTATTCTACTGTCCTGTGCATTCAATCGTTGAGTTCGATCTAGTCTCGTCTAACCCTCCCCTGCTCCGCTGGTCTGGCCTCGCCTATCCTACCCAT
B2: dsDNA pentaprobe (dsDNA)
DNA 1: CGCTCTATTCTACTGTCCTGTGCATTCAATCGTTGAGTTCGATCTAGTCTCGTCTAACCCTCCCCTGCTCCGCTGGTCTGGCCTCGCCTATCCTACCCAT
DNA 2: ATGGGTAGGATAGGCGAGGCCAGACCAGCGGAGCAGGGGAGGGTTAGACGAGACTAGATCGAACTCAACGATTGAATGCACAGGACAGTAGAATAGAGCG

Key:
[1] = biological target: ZNF827 wild-type;RPA heterotrimer (Homo sapiens;Homo sapiens?, UniProt Q17R98;P27694;P15927;P35244 1-1081;1-616;1-270;1-121, |); test: EMSA; 0.8 mM ZnCl2; intermediate band only with both proteins; RPA partly displaces ZNF827; 20 mM HEPES-KOH pH 7.9, 100 mM KCl, 0.8 mM ZnCl2, 0.2 mM EDTA, 5% glycerol, 0.5 mM DTT, 0.5 mM PMSF, 6.25 ug/mL poly(dI:dC), 50 ng/uL BSA, ~0.5 nM probe, on ice; gel at 4 °C; conditions: protein: recombinant;recombinant; tags: HaloTag removed by TEV cleavage;; copies: 1;1;1;1; label: 32P (T4 PNK end label)
Sequence of ZNF827 wild-type;RPA heterotrimer (P27694 whole entry, chain 2 of 3): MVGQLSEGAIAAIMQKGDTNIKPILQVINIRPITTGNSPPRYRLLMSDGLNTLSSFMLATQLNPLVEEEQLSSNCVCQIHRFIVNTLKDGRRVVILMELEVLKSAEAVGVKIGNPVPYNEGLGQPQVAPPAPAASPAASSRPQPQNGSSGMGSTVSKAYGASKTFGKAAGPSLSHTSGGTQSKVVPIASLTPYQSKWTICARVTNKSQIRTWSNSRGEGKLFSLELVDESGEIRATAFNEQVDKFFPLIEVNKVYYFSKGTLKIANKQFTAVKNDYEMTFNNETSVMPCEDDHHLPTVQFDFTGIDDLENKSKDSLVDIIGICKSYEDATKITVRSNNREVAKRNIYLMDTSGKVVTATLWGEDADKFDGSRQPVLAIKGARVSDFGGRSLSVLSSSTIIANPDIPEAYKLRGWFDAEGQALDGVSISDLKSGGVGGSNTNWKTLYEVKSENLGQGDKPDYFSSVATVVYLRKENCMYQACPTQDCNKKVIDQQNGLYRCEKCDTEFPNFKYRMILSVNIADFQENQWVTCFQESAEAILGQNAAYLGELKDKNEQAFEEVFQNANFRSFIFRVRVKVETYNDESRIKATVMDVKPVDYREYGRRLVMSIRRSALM
Sequence of ZNF827 wild-type;RPA heterotrimer (P15927 whole entry, chain 3 of 3): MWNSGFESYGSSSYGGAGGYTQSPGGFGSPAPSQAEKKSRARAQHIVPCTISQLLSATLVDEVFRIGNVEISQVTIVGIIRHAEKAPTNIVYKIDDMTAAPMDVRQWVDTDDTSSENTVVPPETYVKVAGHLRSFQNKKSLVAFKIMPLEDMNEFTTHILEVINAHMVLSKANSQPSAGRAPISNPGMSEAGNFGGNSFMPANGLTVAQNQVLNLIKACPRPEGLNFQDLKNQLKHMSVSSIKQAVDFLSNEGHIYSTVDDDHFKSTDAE
Sequence of ZNF827 wild-type;RPA heterotrimer (P35244 whole entry, chain 4 of 3): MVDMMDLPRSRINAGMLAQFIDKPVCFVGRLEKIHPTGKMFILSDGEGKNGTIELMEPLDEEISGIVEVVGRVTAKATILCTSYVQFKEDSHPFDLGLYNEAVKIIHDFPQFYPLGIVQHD

RPA heterotrimer = RPA heterotrimer (UniProt P27694;P15927;P35244 1-616;1-270;1-121); test: EMSA; 0.8 mM ZnCl2; 20 mM HEPES-KOH pH 7.9, 100 mM KCl, 0.8 mM ZnCl2, 0.2 mM EDTA, 5% glycerol, 0.5 mM DTT, 0.5 mM PMSF, 6.25 ug/mL poly(dI:dC), 50 ng/uL BSA, ~0.5 nM probe, on ice; gel at 4 °C; conditions: protein: recombinant; copies: 1;1;1; label: 32P (T4 PNK end label)
Sequence of RPA heterotrimer (P27694 whole entry, chain 1 of 3): as the sequence (P27694 whole entry, chain 2 of 3) above
Sequence of RPA heterotrimer (P15927 whole entry, chain 2 of 3): as the sequence (P15927 whole entry, chain 3 of 3) above
Sequence of RPA heterotrimer (P35244 whole entry, chain 3 of 3): as the sequence (P35244 whole entry, chain 4 of 3) above

ZNF827 ZnFΔ1-3 = biological target: T1, ZNF827 ZnFΔ1-3; test: as above; conditions: protein: recombinant, tags: HaloTag removed by TEV cleavage, label: 32P (T4 PNK end label)
ZNF827 wild-type = biological target: T2, ZNF827 wild-type; test: as above; conditions: protein: recombinant, tags: HaloTag removed by TEV cleavage, label: 32P (T4 PNK end label)
ZNF827 ZnFΔ4-9 = biological target: T3, ZNF827 ZnFΔ4-9; test: as above; conditions: protein: recombinant; tags: HaloTag removed by TEV cleavage; label: 32P (T4 PNK end label); blunt

Binder | binding result [1] | binding result (RPA heterotrimer) | binding result (ZNF827 ZnFΔ1-3) | binding result (ZNF827 wild-type) | binding result (ZNF827 ZnFΔ4-9) | binding result (ZNF827 ZnFΔ1-3; blunt) | binding result (ZNF827 wild-type; blunt)
B1 | binds | binds | no binding | binds | – | – | –
B2 | – | – | – | – | no binding | no binding | no binding
